Measured values as given in patent US20060263802A1 (CRUCELL HOLLAND B V, published 2006).

Assays:
Experiment in all cases: PEPSCAN ELISA, looped peptide, antibody 10 µg/ml
[1] = molecular target: looped/cyclic peptide … (rabies virus strain ERA)
[2] = molecular target: looped/cyclic peptide … (rabies virus strain ERA); remark: listed apart in the source
[3] = molecular target: looped/cyclic peptide … (rabies virus strain ERA); remark: listed apart in the source
[4] = molecular target: looped/cyclic peptide … (rabies virus strain ERA); remark: listed apart in the source
[5] = molecular target: looped/cyclic peptide … (rabies virus strain ERA); remark: listed apart in the source
[6] = molecular target: looped/cyclic peptide … (rabies virus strain ERA); remark: listed apart in the source
[7] = molecular target: looped/cyclic peptide … (rabies virus strain ERA); remark: listed apart in the source
[8] = molecular target: looped/cyclic peptide … (rabies virus strain ERA); remark: listed apart in the source
[9] = molecular target: looped/cyclic peptide … (rabies virus strain ERA); remark: listed apart in the source
[10] = molecular target: looped/cyclic peptide … (rabies virus strain ERA); remark: listed apart in the source
[11] = molecular target: looped/cyclic peptide … (rabies virus strain ERA); remark: listed apart in the source
[12] = molecular target: looped/cyclic peptide … (rabies virus strain ERA); remark: listed apart in the source
[13] = molecular target: looped/cyclic peptide … (rabies virus strain ERA); remark: listed apart in the source
[14] = molecular target: looped/cyclic peptide … (rabies virus strain ERA); remark: listed apart in the source
[15] = molecular target: looped/cyclic peptide … (rabies virus strain ERA); remark: listed apart in the source
[16] = molecular target: looped/cyclic peptide … (rabies virus strain ERA); remark: listed apart in the source
[17] = molecular target: looped/cyclic peptide … (rabies virus strain ERA); remark: listed apart in the source
[18] = molecular target: looped/cyclic peptide … (rabies virus strain ERA); remark: listed apart in the source
[19] = molecular target: looped/cyclic peptide … (rabies virus strain ERA); remark: listed apart in the source
[20] = molecular target: looped/cyclic peptide … (rabies virus strain ERA); remark: listed apart in the source
[21] = molecular target: looped/cyclic peptide … (rabies virus strain ERA); remark: listed apart in the source
[22] = molecular target: looped/cyclic peptide … (rabies virus strain ERA); remark: listed apart in the source
[23] = molecular target: looped/cyclic peptide … (rabies virus strain ERA); remark: listed apart in the source
[24] = molecular target: looped/cyclic peptide … (rabies virus strain ERA); remark: listed apart in the source
[25] = molecular target: looped/cyclic peptide … (rabies virus strain ERA); remark: listed apart in the source
[26] = molecular target: looped/cyclic peptide … (rabies virus strain ERA); remark: listed apart in the source
[27] = molecular target: looped/cyclic peptide … (rabies virus strain ERA); remark: listed apart in the source
[28] = molecular target: looped/cyclic peptide … (rabies virus strain ERA); remark: listed apart in the source
[29] = molecular target: looped/cyclic peptide … (rabies virus strain ERA); remark: listed apart in the source
[30] = molecular target: looped/cyclic peptide … (rabies virus strain ERA); remark: listed apart in the source
[31] = molecular target: looped/cyclic peptide … (rabies virus strain ERA); remark: listed apart in the source
[32] = molecular target: looped/cyclic peptide … (rabies virus strain ERA); remark: listed apart in the source
[33] = molecular target: looped/cyclic peptide … (rabies virus strain ERA); remark: listed apart in the source
[34] = molecular target: looped/cyclic peptide … (rabies virus strain ERA); remark: listed apart in the source
[35] = molecular target: looped/cyclic peptide … (rabies virus strain ERA); remark: listed apart in the source
[36] = molecular target: looped/cyclic peptide … (rabies virus strain ERA); remark: listed apart in the source
[37] = molecular target: looped/cyclic peptide … (rabies virus strain ERA); remark: listed apart in the source
[38] = molecular target: looped/cyclic peptide … (rabies virus strain ERA); remark: listed apart in the source
[39] = molecular target: looped/cyclic peptide … (rabies virus strain ERA); remark: listed apart in the source
[40] = molecular target: looped/cyclic peptide … (rabies virus strain ERA); remark: listed apart in the source
[41] = molecular target: looped/cyclic peptide … (rabies virus strain ERA); remark: listed apart in the source
[42] = molecular target: looped/cyclic peptide … (rabies virus strain ERA); remark: listed apart in the source
[43] = molecular target: looped/cyclic peptide … (rabies virus strain ERA); remark: listed apart in the source
[44] = molecular target: looped/cyclic peptide … (rabies virus strain ERA); remark: listed apart in the source
[45] = molecular target: looped/cyclic peptide … (rabies virus strain ERA); remark: listed apart in the source
[46] = molecular target: looped/cyclic peptide … (rabies virus strain ERA); remark: listed apart in the source
[47] = molecular target: looped/cyclic peptide DIHHLSCPNNLVVED (rabies virus strain ERA)
[48] = molecular target: looped/cyclic peptide … (rabies virus strain ERA); remark: listed apart in the source
[49] = molecular target: looped/cyclic peptide … (rabies virus strain ERA); remark: listed apart in the source
[50] = molecular target: looped/cyclic peptide … (rabies virus strain ERA); remark: listed apart in the source
[51] = molecular target: looped/cyclic peptide … (rabies virus strain ERA); remark: listed apart in the source
[52] = molecular target: looped/cyclic peptide … (rabies virus strain ERA); remark: listed apart in the source
[53] = molecular target: looped/cyclic peptide … (rabies virus strain ERA); remark: listed apart in the source
[54] = molecular target: looped/cyclic peptide […] (rabies virus strain ERA)
[55] = molecular target: looped/cyclic peptide … (rabies virus strain ERA); remark: listed apart in the source
[56] = molecular target: looped/cyclic peptide … (rabies virus strain ERA); remark: listed apart in the source
[57] = molecular target: looped/cyclic peptide … (rabies virus strain ERA); remark: listed apart in the source
[58] = molecular target: looped/cyclic peptide … (rabies virus strain ERA); remark: listed apart in the source
[59] = molecular target: looped/cyclic peptide … (rabies virus strain ERA); remark: listed apart in the source
[60] = molecular target: looped/cyclic peptide … (rabies virus strain ERA); remark: listed apart in the source

B1: human monoclonal antibody CRJA (antibody, V domains shown)
VH: EVQLLESGGGLVQPGGSLRLSCAASGFTFSNYAMSWVRQAPGKGLEWVSAISASGHSTYLADSVKGRFTISRDNSKNTLYLQMNSLRAEDTAVYYCAKDREVTMIVVLNGGFDYWGQGTRVTVSS
VL: EIVLTQSPATLSLSPGERATLACRASQTASRYLAWYQQKPGQAPRLLIYDTSNRATGIPARFSGSGSGTDFTLSISSLEPEDFAVYYCQQRFNWPWTFGQGTKVEFK
OD value [1]: 86 OD | OD value [2]: 72 OD | OD value [3]: 45 OD | OD value [4]: 90 OD | OD value [5]: 100 OD | OD value [6]: 92 OD | OD value [7]: 74 OD | OD value [8]: 151 OD | OD value [9]: 58 OD | OD value [10]: 110 OD | OD value [11]: 98 OD | OD value [12]: 41 OD | OD value [13]: 71 OD | OD value [14]: 92 OD | OD value [15]: 105 OD | OD value [16]: 84 OD | OD value [17]: 137 OD | OD value [18]: 41 OD | OD value [19]: 66 OD | OD value [20]: 113 OD | OD value [21]: 72 OD | OD value [22]: 58 OD | OD value [23]: 55 OD | OD value [24]: 38 OD | OD value [25]: 43 OD | OD value [26]: 90 OD | OD value [27]: 117 OD | OD value [28]: 87 OD | OD value [29]: 96 OD | OD value [30]: 104 OD | OD value [31]: 65 OD | OD value [32]: 83 OD | OD value [33]: 71 OD | OD value [34]: 55 OD | OD value [35]: 79 OD | OD value [36]: 57 OD | OD value [37]: 84 OD | OD value [38]: 83 OD | OD value [39]: 62 OD | OD value [40]: 72 OD | OD value [41]: 100 OD | OD value [42]: 96 OD | OD value [43]: 93 OD | OD value [44]: 68 OD | OD value [45]: 92 OD | OD value [46]: 136 OD | OD value [47]: 62 OD | OD value [48]: 83 OD | OD value [49]: 110 OD | OD value [50]: 71 OD | OD value [51]: 78 OD | OD value [52]: 84 OD | OD value [53]: 117 OD | OD value [54]: 186 OD | OD value [55]: 118 OD | OD value [56]: 93 OD | OD value [57]: 96 OD | OD value [58]: 45 OD | OD value [59]: 58 OD | OD value [60]: 45 OD
